Results reported in patent publication US20250154277A1 (CONCEPT TO MEDICINE BIOTECH, published 2025).
Residue numbers refer to the chain shown, from its start. Numbers in names are those of the source.

B1: trispecific antibody with anti-5T4 portion of Hu393E9-45-P2 (protein, part only; not given: other two arms, Fc, linkers, format, not shown: another chain or arm of the molecule; a dimerising Fc or GST; small tags and cut ends)
VH: EVQLVESGGGLVQPGGSLRLSCAASGFTFTDYYMSWVRQAPGKGLEWVGFIRNKGNGYTTEYSASVKGRFTISRDNSKSSLYLQMNSLKTEDTAVYYCARYRGNPHYAMDYWGQGTLVTVSS
VL: EIVLTQSPGTLSLSPGERATLSCRASESVEFYGTSFLQWYQQKPGQAPRLLIYGASNVESGIPDRFSGSGSGTDFTLTISRLEPEDIAVYFCQQSRKVPSTFGGGTKVEIK
B2: trispecific antibody with anti-5T4 portion of Hu393E9-62-P2 (protein, part only; not given: other two arms, Fc, linkers, format, not shown: another chain or arm of the molecule; a dimerising Fc or GST; small tags and cut ends)
VH: B1 VH with S77A, K89R, T90A
VL: B1 VL with G9A, L13V, D64A, D74E, R81S, E83Q, P84S
B3: Hu159D5-2 (antibody, V domains shown)
VH: EVQLVESGGGVVQPGRSLRLSCAASGFTFSNFGMHWVRQAPGKGLEWVAYISSGSSTFYYADSVKGRFTISRDNSKNTLYLQMNSLRAEDTAVYYCARSPAYYRYGLDYWGQGTTVTVSS
VL: DIVMTQTPLSLSVTPGQPASISCRASQSVSSSTFSYMHWYQQKPGQPPQLLIKSSSNLESGVPDRFSGSGSGTDFTLKISRVEAEDVGVYYCQHSWEIPYTFGGGTKVEIK
notes: humanized
B4: Hu159D5-5 (antibody, V domains shown)
VH: B3 VH
VL: DIVMTQSPDSLAVSLGERATINCRASQSVSSSTFSYMHWYQQKPGQPPKLLIKSSSNLESGVPDRFSGSGSGTDFTLTISSLQAEDVAVYYCQHSWEIPYTFGGGTKVEIK
notes: humanized
B5: Hu159D5-11 (antibody, V domains shown)
VH: B3 VH with Y95F
VL: B4 VL
notes: humanized
B6: Hu159D5-3 (antibody, V domains shown)
VH: B3 VH
VL: B3 VL with M4L
notes: humanized
B7: Hu159D5-10 (antibody, V domains shown)
VH: B3 VH with Y95F
VL: B4 VL with K53Y
notes: humanized
B8: Hu159D5-9 (antibody, V domains shown)
VH: B3 VH with Y95F
VL: B3 VL with M4L
notes: humanized
B9: Hu159D5-7 (antibody, V domains shown)
VH: B3 VH with Y95F
VL: B3 VL with K53Y
notes: humanized
B10: Hu159D5-6 (antibody, V domains shown)
VH: B3 VH
VL: B4 VL with M4L
notes: humanized
B11: Hu159D5-12 (antibody, V domains shown)
VH: B3 VH with Y95F
VL: B4 VL with M4L
notes: humanized
B12: Hu159D5-4 (antibody, V domains shown)
VH: B3 VH
VL: B4 VL with K53Y
notes: humanized
B13: Hu159D5-1 (antibody, V domains shown)
VH: B3 VH
VL: B3 VL with K53Y
notes: humanized
B14: Hu159D5-8 (antibody, V domains shown)
VH: B3 VH with Y95F
VL: B3 VL
notes: humanized
B15: 37G6 chimeric antibody (antibody, V domains shown)
VH: QVQLQQPGAELVKPGASVKMSCKASGYTFTSYWITWVKQRPGQGLERIGDIYPGSGTINYNEKFKSKATLTVDTSSSTAYMQLSSLTSEDSAVYCCARSDGNYYFDYWGQGTTLKVSS
VL: QIVLSQSPAILSASPGEKVTMTCRASSSVNYMHWYQQKPGSSPKPWIYATSNLASGVPVRFSGSGSGTSYSLTISRVEAEDAATYYCQQWSSNPPTFGGGTKLEIK
B16: 159D5-P1 (antibody, V domains shown)
VH: DVQLVESGGGLVQPGGSRKLSCTASGFTFSNFGMHWVRQAPETGLEWVAYISSGSSTFYYADAVKGRFTISRDNPKNTLFLQMTSLRSEDTAMYFCARSPAYYRYGLDYWGQGTTLTVSS
VL: DIVLTQSPASLAVSLGQRATISCRASQSVSSSTFSYMHWYQQKPGQPPKLLIKSSSNLESGVPARFSGSGSGTDFTLNIHPVEEEDTATYYCQHSWEIPYTFGGGTKLEIK
notes: chimeric 159D5 with S62A (DS to DA) in VH CDR2; also called PTM removal antibody of 159D5-P1; 159D5-VH.S62A with 159D5 VL

Columns and labels:
[1] = target: T1, human 5T4 expressed on cells (human, UniProt Q13641 32-420); experiment: flow cytometry, CHOK1-hu5T4 cells
T1 construct: whole, on cells; also called CHOK1-hu5T4; CHO-K1-expressing human 5T4
T1 sequence (looked up): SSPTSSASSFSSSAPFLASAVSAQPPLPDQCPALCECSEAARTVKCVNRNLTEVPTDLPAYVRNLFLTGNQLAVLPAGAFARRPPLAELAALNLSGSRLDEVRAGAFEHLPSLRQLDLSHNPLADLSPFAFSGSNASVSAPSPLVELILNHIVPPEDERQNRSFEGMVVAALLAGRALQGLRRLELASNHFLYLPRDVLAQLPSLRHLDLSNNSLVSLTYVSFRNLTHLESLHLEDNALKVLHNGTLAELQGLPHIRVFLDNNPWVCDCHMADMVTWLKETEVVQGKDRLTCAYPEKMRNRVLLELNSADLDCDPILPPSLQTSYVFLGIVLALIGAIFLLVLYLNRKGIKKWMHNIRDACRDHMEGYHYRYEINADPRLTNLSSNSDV

human 5T4-His protein [2] = target: T2, human 5T4-His protein (human, UniProt Q13641 32-355); experiment: ELISA, coated 5T4-His
T2 construct: also called recombinant 5T4 protein (human 5T4-his tag); human 5T4 protein; not shown: His tag
T2 sequence (looked up): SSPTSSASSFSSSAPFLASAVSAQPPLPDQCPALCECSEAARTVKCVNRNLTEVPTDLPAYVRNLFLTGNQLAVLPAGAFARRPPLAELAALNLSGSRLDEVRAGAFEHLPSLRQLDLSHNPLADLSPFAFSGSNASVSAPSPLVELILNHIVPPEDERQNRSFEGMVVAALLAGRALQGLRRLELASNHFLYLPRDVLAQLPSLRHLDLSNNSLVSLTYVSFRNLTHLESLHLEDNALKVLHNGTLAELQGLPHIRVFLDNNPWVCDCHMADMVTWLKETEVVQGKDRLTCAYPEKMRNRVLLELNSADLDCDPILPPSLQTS
Description: To evaluate the binding activity of 159D5 humanized antibodies to human 5T4, the 159D5 chimeric antibody along with 159D5 humanized mAbs were subjected to ELISA test.
Briefly, microtiter plates were coated with human 5T4-His protein at 1 μg/ml in PBS, 100 μl/well at 4° C. overnight, then blocked with 150 μl/well of 10% BSA. Serial dilutions of antibodies were added to each well and incubated for 1 hour at 37° C. The plates were washed with PBS/Tween and then incubated with Goat Anti-Human IgG-HRP for 30 mins at 37° C. After washing, the plates were developed with TMB substrate and analyzed by spectrophotometer at OD 450 nm. As shown in FIG. 14 and Table 12, most of the humanized antibodies bound to human 5T4 with high activity.

human 5T4-His protein [3] = target: T2, human 5T4-His protein; experiment: SPR Biacore, Protein A capture, 50 nM 5T4-His
Description: The binding of the 159D5 humanized antibodies to recombinant 5T4 protein (human 5T4-his tag) was tested with Biacore using a capture method. The mAbs were captured using Protein A chip. 50 nM of human 5T4-his tag protein was injected over captured antibody for 3 mins at a flow rate of 30 μl/min. The antigen was allowed to dissociate for 600 s. All the experiments were carried out on a Biacore T200. Data analysis was carried out using the Biacore T200 evaluation software.

human 5T4-His protein [4] = target: T2, human 5T4-His protein; experiment: ELISA, coated antigen
Description: (§1) ELISA testing was carried out to evaluate the binding of chimeric antibodies to human and cynomolgus, respectively. The antibody portion of naptumomab (NeoTX) that targets 5T4 (abbreviated as naptumomab in the present disclosure), was generated and used as a benchmark.
(§2) Briefly, microtiter plates were coated with human and cynomolgus 5T4 proteins at […] in PBS, 100 μl/well at 4° C. overnight, then blocked with 150 μl/well of 1% BSA. Serial dilutions of chimeric antibodies were added to each well and incubated for 1 hour at RT. The plates were washed with PBS/Tween and then incubate with mouse-anti-human IgG Fc antibody conjugated with Horse Radish Peroxidase (HRP) for 30 mins at RT. After washing, the plates were developed with TMB substrate and analyzed by spectrophotometer at OD 450 nm. All the 5T4 chimeric mAbs bound to human and cynomolgus 5T4 (FIG. 1-2 and Table 3).

cynomolgus 5T4 protein = target: T3, cynomolgus 5T4 protein (cynomolgus monkey, UniProt Q4R8Y9 35-355, limits assumed); experiment: ELISA, coated antigen
T3 construct: Coated protein in ELISA; the screening step names a cyno 5T4-His protein; also called cyno 5T4; recombinant cyno 5T4-His protein
T3 sequence (looked up): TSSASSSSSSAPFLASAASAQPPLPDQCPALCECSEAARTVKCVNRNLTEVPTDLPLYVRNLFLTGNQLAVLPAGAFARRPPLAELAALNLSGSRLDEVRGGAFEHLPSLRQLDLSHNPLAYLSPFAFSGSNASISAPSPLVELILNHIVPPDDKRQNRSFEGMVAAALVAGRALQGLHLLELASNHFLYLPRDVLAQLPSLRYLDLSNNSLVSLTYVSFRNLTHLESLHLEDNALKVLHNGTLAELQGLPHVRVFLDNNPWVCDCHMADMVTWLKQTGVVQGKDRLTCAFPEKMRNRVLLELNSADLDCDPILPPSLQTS
Description: as §1, §2

human 5T4-His protein [5] = target: T2, human 5T4-His protein; experiment: SPR Biacore, Protein A capture

Binder	EC50 (read off the curve) [1] [pM]	EC50 (human 5T4-His protein [2]) [pM]	Kd (human 5T4-His protein [3]) [pM]	koff (human 5T4-His protein [3]) [s⁻¹]	kon (human 5T4-His protein [3]) [M⁻¹ s⁻¹]	EC50 (human 5T4-His protein [4]) [pM]	EC50 (cynomolgus 5T4 protein) [pM]	Kd (human 5T4-His protein [5]) [pM]	koff (human 5T4-His protein [5]) [s⁻¹]	kon (human 5T4-His protein [5]) [M⁻¹ s⁻¹]
B1	2000									
B2	2000									
B3		120	789	0.000227	287000					
B4		99	10100	0.000561	55600					
B5		120	1060	0.000273	257000					
B6		120	1020	0.00024	235000					
B7		94	9310	0.000488	52400					
B8		140	747	0.000221	295000					
B9		97	1140	0.000253	221000					
B10		100	710	0.000179	252000					
B11		120	1210	0.000267	222000					
B12		94	7070	0.000426	60200					
B13		88	3990	0.000294	73700					
B14		150	4190	0.000352	84000					
B15						130	280	590	0.000486	823000
B16		130	489	0.000163	334000					
